In the Human Domainome abundance scans (Beltran et al. 2025):
± gives the uncertainty stated by the source.

B1: Zinc finger MYM-type protein 3, residues 589 to 668; numbered along this chain, Q14202 (parent)
chain: LSCHYCHSLFSGKPEVLDWQDQVFQFCCRDCCEDFKRLRGVVSQCEHCRQEKLLHEKLRFSGVEKSFCSEGCVLLYKQDF
B2: Nucleolar transcription factor 1, residues 408 to 469; numbered along this chain, P17480 (parent)
chain: KRPVSAMFIFSEEKRRQLQEERPELSESELTRLLARMWNDLSEKKKAKYKAREAALKAQSER

Variants of: B1
Experiment: abundance fitness (aPCA) (normalised: wild type 0, dead -1); higher = more abundant; growth selection in yeast, the domain comes from the species named
Conditions: Homo sapiens

Variant	abundance fitness
V63D	-0.175 ± 0.21
V63L	-0.074 ± 0.18
V63R	-0.285 ± 0.11
V63P	-0.198 ± 0.33
G71R	0.501 ± 0.073
G71S	0.453 ± 0.1
G71E	0.62 ± 0.085
G71C	-0.535 ± 0.21
G71I	0.317 ± 0.42
G71A	0.156 ± 0.087
G71D	0.351 ± 0.28
G71V	-0.043 ± 0.11
G71L	-0.105 ± 0.1
G71H	-0.037 ± 0.32
G71Q	0.378 ± 0.16
G71W	-0.219 ± 0.22
G71T	0.414 ± 0.11
G71K	0.337 ± 0.22
G71M	0.721 ± 0.24
S69G	-0.64 ± 0.1
S69W	-0.623 ± 0.26
S69C	0.093 ± 0.19
S69P	-0.445 ± 0.29
S69E	-0.341 ± 0.15

Variant	abundance fitness
S69K	-0.282 ± 0.26
S69R	-0.456 ± 0.11
S69V	-0.534 ± 0.17
S69A	-0.023 ± 0.16
S69I	-0.15 ± 0.36
S69Q	-0.638 ± 0.42
S69D	-0.702 ± 0.29
F80C	0.093 ± 0.2
F80A	0.288 ± 0.16
F80T	0.652 ± 0.24
F80M	0.294 ± 0.26
F80G	0.033 ± 0.14
F80P	0.525 ± 0.22
F80V	0.281 ± 0.094
F80W	-0.146 ± 0.38
F80S	0.194 ± 0.14
F80L	0.5 ± 0.12
F80R	0.522 ± 0.082
S61G	0.282 ± 0.077
S61V	-0.389 ± 0.18
S61K	-0.096 ± 0.16
S61D	0.665 ± 0.13
S61P	-0.424 ± 0.24
S61W	-0.467 ± 0.2

Variant	abundance fitness
S61E	0.293 ± 0.081
S61R	-0.137 ± 0.11
S61M	0.02 ± 0.17
S61Q	-0.12 ± 0.17
S61L	-0.311 ± 0.2
S61A	0.284 ± 0.12
L74S	-0.081 ± 0.19
L74P	-0.205 ± 0.43
L74N	0.453 ± 0.22
L74V	-0.195 ± 0.099
L74R	0.484 ± 0.08
L74I	-0.381 ± 0.35
L74Q	0.244 ± 0.15
L74E	0.662 ± 0.091
L74W	0.081 ± 0.13
L74T	0.151 ± 0.13
L74Y	-0.446 ± 0.38
L74M	0.292 ± 0.11
L74H	0.041 ± 0.3
L74G	0.183 ± 0.099
L74A	0.404 ± 0.077
L74D	0.145 ± 0.13
E70L	-0.055 ± 0.15
E70I	0.781 ± 0.38

Variant	abundance fitness
E70M	-0.152 ± 0.22
E70W	-0.918 ± 0.4
E70Q	0.199 ± 0.14
E70A	-0.096 ± 0.15
E70P	0.069 ± 0.21
E70S	0.067 ± 0.12
E70D	0 ± 0.5
E70R	-0.687 ± 0.31
E70C	0.121 ± 0.14
E70T	-0.048 ± 0.21
E70V	-0.066 ± 0.12
E70G	-0.116 ± 0.12
L58S	-0.254 ± 0.17
L58Q	-0.146 ± 0.19
L58E	0.094 ± 0.15
L58W	-0.23 ± 0.14
L58T	-0.364 ± 0.18
L58R	0.148 ± 0.08
L58V	0.544 ± 0.089
L58F	0.065 ± 0.28
L58G	0.012 ± 0.082
L58H	0.542 ± 0.28
E64A	-0.571 ± 0.23
E64D	0.047 ± 0.31

Variant	abundance fitness
E64V	-0.359 ± 0.3
E64M	-0.316 ± 0.18
E64H	-0.355 ± 0.34
E64C	-0.165 ± 0.42
E64L	-0.633 ± 0.25
E64T	-0.238 ± 0.31
E64R	-0.692 ± 0.16
E64G	-0.48 ± 0.21
E64I	-0.344 ± 0.46
E64W	-0.176 ± 0.22
E64Q	-0.363 ± 0.18
C72R	-0.781 ± 0.17
C72A	-0.525 ± 0.2
C72S	-0.935 ± 0.29
C72L	-1.04 ± 0.23
C72K	-0.33 ± 0.24
C72E	-0.644 ± 0.28
C72M	-0.514 ± 0.28
C72W	-0.53 ± 0.17
C72P	-0.725 ± 0.39
C72T	-0.869 ± 0.22
C72V	-0.647 ± 0.15
C72Q	-0.317 ± 0.41

Variants of: B2
Experiment: as above
Conditions: Homo sapiens

Variant	abundance fitness
R32Y	-0.157 ± 0.13
R32A	-0.033 ± 0.048
A55Y	-0.149 ± 0.14
A47S	-0.046 ± 0.063
A47P	-0.695 ± 0.082
L56P	-0.156 ± 0.066
V4N	-0.104 ± 0.18
Q59F	-0.193 ± 0.1
Q19N	-0.129 ± 0.074
A35W	-0.273 ± 0.056
A35M	-0.102 ± 0.063
S11P	-1.16 ± 0.11
S11F	-0.029 ± 0.066
R16K	-0.073 ± 0.12
R16D	-0.248 ± 0.094
K57Q	-0.16 ± 0.1
K57D	-0.096 ± 0.058
I9C	-0.074 ± 0.077
I9E	-0.38 ± 0.12
E24S	-0.147 ± 0.05
S42K	-0.294 ± 0.061
S42E	-0.121 ± 0.075
R15N	-0.427 ± 0.08
F8I	-0.02 ± 0.1

Variant	abundance fitness
K14H	0.062 ± 0.088
A51L	-0.042 ± 0.051
E61Y	-0.191 ± 0.2
D40K	-0.15 ± 0.084
A54W	-0.199 ± 0.059
K44P	-0.037 ± 0.051
R22D	-0.139 ± 0.11
L25D	-0.633 ± 0.1
K1M	0.004 ± 0.11
E27S	-0.178 ± 0.06
E43P	-0.592 ± 0.34
Q17K	-0.094 ± 0.068
Q17G	-0.038 ± 0.041
R2C	-0.178 ± 0.095
P23A	-0.256 ± 0.07
P23W	-0.588 ± 0.068
N39F	-0.061 ± 0.1
S26I	-0.29 ± 0.17
K46G	-0.806 ± 0.045
K45P	-0.435 ± 0.069
K45M	-0.039 ± 0.049
K45A	-0.048 ± 0.052
K48N	0.029 ± 0.18
E21F	-0.238 ± 0.085
